{
  "source": "paper doi:10.1101/2022.12.03.518990",
  "key": {"[1]": {"biological_target": "GMPCPP-stabilized microtubules (TAMRA-labeled, polymerized from bovine brain tubulin) (bovine) (UniProt Q6B856)", "sequence (Q6B856 whole entry, looked up)": "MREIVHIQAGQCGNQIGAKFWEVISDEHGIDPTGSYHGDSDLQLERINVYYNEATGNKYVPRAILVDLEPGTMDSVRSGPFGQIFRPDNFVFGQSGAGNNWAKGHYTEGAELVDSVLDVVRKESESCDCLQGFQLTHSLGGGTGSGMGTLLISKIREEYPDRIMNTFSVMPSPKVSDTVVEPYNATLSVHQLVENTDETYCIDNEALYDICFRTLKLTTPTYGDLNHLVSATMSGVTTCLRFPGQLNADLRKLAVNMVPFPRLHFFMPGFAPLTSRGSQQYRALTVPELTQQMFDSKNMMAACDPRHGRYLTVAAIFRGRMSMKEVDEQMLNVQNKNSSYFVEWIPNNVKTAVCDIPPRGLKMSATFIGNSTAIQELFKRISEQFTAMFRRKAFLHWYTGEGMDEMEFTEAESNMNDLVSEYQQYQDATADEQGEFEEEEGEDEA", "test": "single-molecule TIRF microscopy, dwell times"}, "[2]": {"biological_target": "GMPCPP-stabilized microtubules (TAMRA-labeled, polymerized from bovine brain tubulin) (bovine) (UniProt Q6B856)", "test": "single-molecule TIRF microscopy, dwell times", "remark": "listed apart in the source"}},
  "note": "Where two headings read alike, the source gives them in different places.",
  "data": [
    {"substance": "His-EGFP-L-TOG2-S (EGFP-tagged TOG2 domain and serine-arginine-rich region of human CLASP2α) (domain or fragment)", "values": [
      {"measurement": "mean dwell time", "setting": "[1]", "value": 0.53, "unit": "s"},
      {"measurement": "mean dwell time", "setting": "[2]", "value": 3.8, "unit": "s"}
    ]}
  ]
}
